# Columns and labels:
# [1] = molecular target: N-terminally KGN-tagged Vpr (KGN-Vpr) (UniProt P12520); experiment: bimolecular fluorescence complementation (BiFC), flow cytometry on cells; conditions: 293T cells, 48 hours post-transfection; parent: est. 100; read off a plot
# [2] = molecular target: C-terminally KGC-tagged Gag (Gag-KGC); experiment: as above; conditions: 293T cells, 48 hours post-transfection; parent: est. 100; read off a plot
Substance,percent of parent [1],percent of parent [2]
C-terminally KGC-tagged Gag (Gag-KGC) S487A,35%,–
N-terminally KGN-tagged Vpr (KGN-Vpr) (from UniProt P12520) Q44E,–,30%
